Source: patent publication US7229788B1, “Protease susceptibility II” (The University of Sydney, priority 1998, dated 2007)
Entries after “also recorded” stand apart in the source; their conditions may differ.

Columns and labels:
human serum = settings: for effect of peptide on degradation of SHEL by serum (full-length SHEL, SDS-PAGE, densitometry): molar excess of peptide to SHEL (100:1), preincubated 37° C., SHEL and SHELδ26A; for effect of protease inhibitor on serum degradation of SHEL (amount of full-length SHEL): SHEL incubated with serum at 37° C., SDS-PAGE, 0.5 mM Pefabloc SC, 5 mM PMSF, 25 mM EDTA, Pefabloc PK, 1 unit Hirudin
Description: Human serum was obtained from fresh intravenous blood, centrifuged at 2000 g to remove red blood cells and then allowed to clot before serum was removed. Aliquots (20 μl) were stored at −20° C. and thawed when needed. 15 μg tropoelastin in 50 mM sodium phosphate buffer, pH 7.8 was incubated with 0.5 μl serum in a 20 μl reaction for between 1 and 18 hr at 37° C. […] All inhibitors were dissolved in water except PMSF which was dissolved in isopropanol. Reactions were analysed by 8% SDS-PAGE. Serum-digested peptides to be used for sequencing were purified by the addition of 1.5 volumes n-propanol, followed by 2.5 volumes n-butanol and stirred overnight. The organic solvents were removed by rotary evaporation and peptides resuspended in 50 mM sodium phosphate buffer, pH 7.8.
Various dilutions of serum from ½– 1/50 in 50 mM sodium phosphate pH7.8 were used and both SHEL and SHELδ26A were used for each experiment.
Experiments were conducted in parallel with S-GAL using identical procedures (see above). Both SHEL and SHELδ26A were used. Each reaction was analysed by 10% SDS-PAGE. Gels were scanned by densitometry and the volume of full-length SHEL calculated as follows. Scanning densitometry of stained gels was performed using the Molecular Dynamics Personal Densitometer. Images were analysed and quantitated using ImageQuant software (Version 3.2, Molecular Dynamics USA).
10 mg/ml SHEL in 50 mM sodium phosphate pH7.8 and 150 mM NaCl was allowed to coacervate at 37° C. until cloudy before adding human plasma kallikrein (6×10^−4U), thrombin (1U), plasmin (1.5×10^−5U), trypsin (2×10^−3U), HLE (1.6×10^−3U) and serum (0.75 μl) for one hour. Control reactions were performed at 16° C. for three hours. Extent of proteolysis was monitored by SDS-PAGE.

human thrombin = target: T1, human thrombin (Homo sapiens, UniProt P00734); assay: Thrombin digestion of SHEL, SDS-PAGE; assay type: biochemical; settings: for effect of peptide on degradation of SHEL by thrombin (full-length SHEL, SDS-PAGE, densitometry): molar excess of peptide to SHEL (100:1), SHEL and SHELδ26A
T1 construct: purchased Sigma
Description: (§1) A range of enzyme concentrations was originally used to determine the optimal amount for subsequent experiments. Thrombin (0.01–1U), human plasma kallikrein (3×10^−4 to 3×10^−3U), human plasmin (7×10^−5 to 4×10^−7U), bovine trypsin (5×10^−4 to 4×10^−3U), and human leukocyte elastase (1.6×10^−4 to 3.2×10^−3U) were added to 10 μg SHEL or SHELδ26A in 50 mM sodium phosphate buffer pH 7.8 in a total volume of 20 μl. All reactions were performed at 37° C. for one hour. Gelatinase A and B were activated using 0.8 mM APMA at 37° C. for 30 minutes (gelatinase A) or 37° C. for 45 minutes (gelatinase B). Gelatinase A (4×10^−3−4×10^−2) and gelatinase B (2×10^−5−1×10^−4) was added to […] SHEL or SHELd26A in a total volume of […]. Gelatinase B reactions were performed in the presence of 0.75 mM APMA. The degradation profile was analysed by 8, 10 or 12% SDS-PAGE.
(§2) Both SHEL and SHELδ26A were used. Each reaction was analysed by 10% SDS-PAGE.
(§3) Extent of proteolysis was monitored by SDS-PAGE.
Cleavage of GST-SHEL bound to glutathione agarose was performed by washing and resuspending beads in 1× thrombin cleavage buffer (50 mM Tris-HCl pH8.0, 150 mM NaCl, 2.5 mM CaCl2) and adding human thrombin (Sigma) from 0.1 to 1% (w/v) thrombin:fusion protein at 25° C. for one hour (Smith and Johnston 1988). Soluble bacterial lysates used as substrate were incubated similarly with 1× thrombin cleavage buffer, added from a 10× stock. GST (26 kDa) was evident on beads by SDS-PAGE but SHEL could not be identified in the supernatant in numerous experiments. To determine whether thrombin was degrading SHEL, the entire cell lysate was subject to cleavage with increasing concentrations of thrombin. […] GST was clearly present. However, with 0.01U thrombin a band at approximately 64 kDa could be discerned which may represent SHEL although this was not nearly as intense as the GST band.

human plasma kallikrein = target: T2, human plasma kallikrein (Homo sapiens, UniProt P03952); assay: Kallikrein digestion of SHEL, SDS-PAGE; assay type: biochemical; settings: molar excess of peptide to SHEL (100:1); SHEL and SHELδ26A
T2 construct: purchased Sigma
Description: as §1, §2, §3

bovine trypsin = target: T3, bovine trypsin (Bos taurus, UniProt P00760); assay: Trypsin digestion of SHEL, SDS-PAGE; assay type: biochemical; settings: molar excess of peptide to SHEL (100:1); SHEL and SHELδ26A
T3 construct: purchased Boehringer-Mannheim
T3 sequence (P00760 24-246): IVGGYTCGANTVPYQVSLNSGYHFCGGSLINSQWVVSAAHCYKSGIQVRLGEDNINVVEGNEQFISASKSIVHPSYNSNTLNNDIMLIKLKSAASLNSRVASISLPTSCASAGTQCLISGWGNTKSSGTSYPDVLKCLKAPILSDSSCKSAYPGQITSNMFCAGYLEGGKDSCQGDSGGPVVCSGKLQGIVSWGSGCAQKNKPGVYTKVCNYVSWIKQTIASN
Description: as §1, §2, §3

human plasmin = target: T4, human plasmin (Homo sapiens, UniProt P00747); assay: Plasmin digestion of SHEL, SDS-PAGE; assay type: biochemical; settings: molar excess of peptide to SHEL (100:1); SHEL and SHELδ26A
T4 construct: purchased Sigma
Description: as §1, §2, §3

[1] = target: T5, human leukocyte elastase (HLE) (Homo sapiens, UniProt P08246); assay: HLE digestion of SHEL, SDS-PAGE; assay type: biochemical; settings: molar excess of peptide to SHEL (100:1); SHEL and SHELδ26A
T5 construct: purchased Sigma
T5 sequence (P08246 30-267): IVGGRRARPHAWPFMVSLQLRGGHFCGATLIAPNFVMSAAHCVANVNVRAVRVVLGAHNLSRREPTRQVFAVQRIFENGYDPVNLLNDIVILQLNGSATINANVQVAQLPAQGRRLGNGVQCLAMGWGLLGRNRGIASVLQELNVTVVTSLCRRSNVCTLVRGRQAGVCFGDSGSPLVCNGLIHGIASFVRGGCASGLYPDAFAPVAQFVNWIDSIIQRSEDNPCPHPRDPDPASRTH
Description: as §1, §2, §3

gelatinase A = gelatinase A (Homo sapiens, UniProt P08253)
kallikrein = target: T6, kallikrein (Homo sapiens, UniProt P03952); assay type: biochemical
T6 construct: from tissue; host or cells: human serum
T6 sequence (P03952 20-638): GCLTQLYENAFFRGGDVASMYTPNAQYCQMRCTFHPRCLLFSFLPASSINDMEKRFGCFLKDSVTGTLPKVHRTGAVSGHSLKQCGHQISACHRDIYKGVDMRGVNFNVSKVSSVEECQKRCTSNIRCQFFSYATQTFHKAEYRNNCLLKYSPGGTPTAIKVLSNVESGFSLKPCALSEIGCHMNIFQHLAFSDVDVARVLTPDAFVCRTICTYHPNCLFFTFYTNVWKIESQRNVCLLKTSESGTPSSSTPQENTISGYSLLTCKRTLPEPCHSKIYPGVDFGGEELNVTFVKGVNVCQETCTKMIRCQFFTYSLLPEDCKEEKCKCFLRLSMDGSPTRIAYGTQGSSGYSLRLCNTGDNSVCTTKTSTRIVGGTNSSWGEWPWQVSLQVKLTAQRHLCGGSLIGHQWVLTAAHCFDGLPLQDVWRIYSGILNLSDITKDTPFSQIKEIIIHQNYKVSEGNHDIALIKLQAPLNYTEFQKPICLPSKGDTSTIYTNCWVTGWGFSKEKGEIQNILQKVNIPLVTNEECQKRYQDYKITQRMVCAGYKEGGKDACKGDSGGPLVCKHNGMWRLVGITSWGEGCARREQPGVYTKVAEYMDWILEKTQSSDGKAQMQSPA

T4 sequence (P00747 97-810): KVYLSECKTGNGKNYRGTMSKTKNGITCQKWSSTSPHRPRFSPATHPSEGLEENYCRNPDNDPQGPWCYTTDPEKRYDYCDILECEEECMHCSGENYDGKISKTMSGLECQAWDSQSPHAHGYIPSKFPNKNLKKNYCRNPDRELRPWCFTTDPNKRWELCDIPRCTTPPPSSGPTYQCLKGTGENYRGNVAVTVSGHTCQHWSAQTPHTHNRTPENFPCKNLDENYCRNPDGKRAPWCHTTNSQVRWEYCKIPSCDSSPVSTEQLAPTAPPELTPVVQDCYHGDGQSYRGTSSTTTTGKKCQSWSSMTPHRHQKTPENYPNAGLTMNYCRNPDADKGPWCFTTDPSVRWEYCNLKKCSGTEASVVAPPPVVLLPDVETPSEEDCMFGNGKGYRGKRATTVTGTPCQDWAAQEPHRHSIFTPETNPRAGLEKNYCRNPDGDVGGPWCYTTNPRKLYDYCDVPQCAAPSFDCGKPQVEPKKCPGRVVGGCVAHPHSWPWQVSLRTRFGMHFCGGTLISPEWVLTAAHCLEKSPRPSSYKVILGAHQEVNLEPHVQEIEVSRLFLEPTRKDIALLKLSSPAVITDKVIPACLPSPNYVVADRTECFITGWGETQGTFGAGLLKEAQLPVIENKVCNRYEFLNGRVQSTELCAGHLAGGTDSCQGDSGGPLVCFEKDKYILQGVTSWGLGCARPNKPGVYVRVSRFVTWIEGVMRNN
T2 sequence (P03952 20-638): as the sequence (P03952 20-638) above
Sequence of gelatinase A (P08253 110-660): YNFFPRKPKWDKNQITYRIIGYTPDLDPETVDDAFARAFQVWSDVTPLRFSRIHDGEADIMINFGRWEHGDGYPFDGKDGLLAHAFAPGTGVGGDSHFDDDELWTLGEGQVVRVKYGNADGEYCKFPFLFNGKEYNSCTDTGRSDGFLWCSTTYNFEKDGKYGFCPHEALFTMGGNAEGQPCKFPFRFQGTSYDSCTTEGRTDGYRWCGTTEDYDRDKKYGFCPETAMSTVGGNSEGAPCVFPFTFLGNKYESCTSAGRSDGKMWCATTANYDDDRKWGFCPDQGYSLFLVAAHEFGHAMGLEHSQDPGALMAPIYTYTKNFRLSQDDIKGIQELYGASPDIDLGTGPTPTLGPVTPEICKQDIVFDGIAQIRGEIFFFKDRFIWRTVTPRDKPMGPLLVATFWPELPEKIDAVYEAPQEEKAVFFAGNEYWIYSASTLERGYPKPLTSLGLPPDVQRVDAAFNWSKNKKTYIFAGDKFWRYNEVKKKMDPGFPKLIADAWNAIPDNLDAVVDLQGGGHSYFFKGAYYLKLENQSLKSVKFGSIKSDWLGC

| Compound | effect of peptide on degradation of SHEL by serum (full-length SHEL, SDS-PAGE, densitometry) (human serum) | effect of peptide on degradation of SHEL by thrombin (full-length SHEL, SDS-PAGE, densitometry) (human thrombin) | effect of peptide on degradation of SHEL by kallikrein (full-length SHEL, SDS-PAGE, densitometry) (human plasma kallikrein) | effect of peptide on degradation of SHEL by trypsin (full-length SHEL, SDS-PAGE, densitometry) (bovine trypsin) | effect of peptide on degradation of SHEL by plasmin (full-length SHEL, SDS-PAGE, densitometry) (human plasmin) | effect of peptide on degradation of SHEL by HLE (full-length SHEL, SDS-PAGE, densitometry) [1] | effect of protease inhibitor on serum degradation of SHEL (amount of full-length SHEL) (human serum) | further results |
| --- | --- | --- | --- | --- | --- | --- | --- | --- |
| N-AAKAQLRAAAGLGA-C (KAQLRAAAGLGAGI; listed as Homo sapiens) [SPS-peptide] | more full-length SHEL was evident compared with controls | more full-length SHEL using thrombin and HLE but to a lesser extent | more full-length SHEL was evident compared with controls | more full-length SHEL was evident compared with controls | more full-length SHEL was evident compared with controls | more full-length SHEL using thrombin and HLE but to a lesser extent | – | – |
| Hirudin [reference compound] | – | – | – | – | – | – | did not appear to significantly inhibit degradation | inhibition of thrombin degradation of SHEL by inhibitor (human thrombin; not shown): degradation was inhibited |
| O=C(O)CN(CCN(CC(=O)O)CC(=O)O)CC(=O)O [EDTA] | – | – | – | – | – | – | appeared to promote digestion | effect on 64 kDa zone in gelatin zymogram digested with serum (gelatinase A): 64 kDa zone was not observed |
| N-VVGSPSAQDEASPLS-C (listed as Homo sapiens) [S-GAL, reference compound] | did not show any significant or consistent inhibition | some inhibition could be seen | did not show any significant or consistent inhibition | did not show any significant or consistent inhibition | did not show any significant or consistent inhibition | consistently inhibited; also recorded: significant and reproducible inhibition was seen | – | – |
| Cl.NCCc1ccc(S(=O)(=O)F)cc1 [Pefabloc SC] | – | – | – | – | – | – | protected tropoelastin from cleavage | – |
| O=S(=O)(F)Cc1ccccc1 [PMSF] | – | – | – | – | – | – | protected tropoelastin from cleavage | effect of inhibitor on second cleared zone in SHEL zymogram digested with serum (kallikrein): second cleared zone was not seen |
